Assay results from patent publication US20240209099A1 (SUZHOU TRANSCENTA THERAPEUTICS, published 2024).

How the values were obtained:
[1] = target: T1, Recombinant Human VEGFR2/KDR Protein, His tag (hVEGFR2-his) (human, UniProt P35968 20-764); assay: ELISA, hVEGFR2-his coated, anti-human Fc-HRP; antibody made in 293T cells
T1 construct: Expressed in HEK293, bought from ACRO Biosystems; also called human VEGFR2-his; Human VEGFR2/KDR-His
Protocol: Same protocol of Example 4 except using HRP conjugated goat anti-human Fc antibody as secondary antibody. Binding to hVEGFR2-his and rhesus VEGFR2-his (Acrobiosystems, Cat #VE2-C52H3) were also analyzed head-to-head.
Same protocol of Example 9.

[2] = target: T2, Recombinant Rhesus macaque VEGFR2/KDR Protein, His tag (rhesus macaque); assay: competition ELISA: VEGF-A coated (0.25 ug/ml), antibody titrated together with 1 ug/ml rhesus VEGFR2, detection with mouse anti-VEGFR2 serum and anti-mouse Fc-HRP; blocked ligand VEGF-A
T2 construct: Expressed in HEK293, bought from ACRO Biosystems; also called rhesus VEGFR2-his; rhesus VEGFR2
T2 chain: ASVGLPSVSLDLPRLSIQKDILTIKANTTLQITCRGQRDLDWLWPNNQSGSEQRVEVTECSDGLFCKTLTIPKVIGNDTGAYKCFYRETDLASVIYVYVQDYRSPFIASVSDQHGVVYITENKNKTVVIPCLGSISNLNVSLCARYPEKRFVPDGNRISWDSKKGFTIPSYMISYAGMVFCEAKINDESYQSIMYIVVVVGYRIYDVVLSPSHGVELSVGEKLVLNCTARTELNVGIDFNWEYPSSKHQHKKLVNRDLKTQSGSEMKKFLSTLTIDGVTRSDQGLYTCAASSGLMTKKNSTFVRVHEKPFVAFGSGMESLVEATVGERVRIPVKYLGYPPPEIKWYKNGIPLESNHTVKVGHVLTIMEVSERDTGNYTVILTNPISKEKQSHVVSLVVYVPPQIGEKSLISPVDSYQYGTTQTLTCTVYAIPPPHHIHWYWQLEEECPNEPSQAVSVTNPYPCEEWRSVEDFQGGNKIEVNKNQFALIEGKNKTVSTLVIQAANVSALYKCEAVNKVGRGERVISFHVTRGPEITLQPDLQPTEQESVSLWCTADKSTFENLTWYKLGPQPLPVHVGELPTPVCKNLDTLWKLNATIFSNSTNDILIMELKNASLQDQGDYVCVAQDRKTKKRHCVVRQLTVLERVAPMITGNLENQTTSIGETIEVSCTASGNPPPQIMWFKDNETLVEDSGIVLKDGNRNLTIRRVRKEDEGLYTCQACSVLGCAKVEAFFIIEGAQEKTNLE
Protocol: For this assay, 0.25 μg/ml VEGF-A was coated on ELISA plate before a mixture of chimeric antibodies and VEGFR2 were added. To detect free VEGF-A (not bind to VEGFR2), 1:1000 diluted mouse serum (mouse previous immunized with human VEGFR2) were added and HRP conjugated goat anti-mouse Fc antibody was used as secondary antibody.
Same protocol of Example 10. Briefly, 0.25 μg/ml VEGF-A was coated overnight at 4° C. After blocking, serial diluted 54-H2L1, 48-H3L1, Ramucirumab and 1 μg/ml human VEGFR2 or rhesus VEGFR2 were added at the same time for 2 hour-incubation. After wash, mouse serum containing polyclone VEGFR2 antibody and HRP conjugated goat anti-mouse Fc antibody were added for detection of free VEGF-A coated on the plates (see FIGS. 13A and 13B).

[3] = target: T2, Recombinant Rhesus macaque VEGFR2/KDR …; assay: ELISA, rhesus VEGFR2-his coated, anti-human Fc-HRP; antibody made in CHO cells

B1: 54-H2L1 (humanized Mab54) (antibody, human IgG1, V domains shown)
VH: EVQLVESGGGLVKPGGSLRLSCAASGFTFSMYGMSWVRQAPGKRLEWVASISIGGSYTYYADSVKGRFTISRDNAKNTLYLQMNSLRAEDTAVYYCARELDGNYDYWGQGTTLTVSS
VL: DIVITQDELSLPVTFGESVSISCRSSKSLLYKDGKTYLNWFLQRPGQSPQLLIYLMSTRASGVSDRFSGSGSGTDFTLKISRVEAEDVGIYYCQQLVEYPFTFGSGTKLEIK
notes: also called 54-H2L1 (CHO); humanized 54 variant H2L1
EC50 [1]: 0.0288 µg/mL
IC50 [2]: 0.805 µg/mL
EC50 [3]: 0.0111 µg/mL
